Values quoted from earlier work, collected in article PMC5430804, “Structural and biochemical insights of CypA and AIF interaction” (Scientific Reports, 2017).

Molecular target: AIF(Δ1-121) Δ1-121 (Homo sapiens) (UniProt O95831)
Sequence (O95831 1-121, stated change not applied): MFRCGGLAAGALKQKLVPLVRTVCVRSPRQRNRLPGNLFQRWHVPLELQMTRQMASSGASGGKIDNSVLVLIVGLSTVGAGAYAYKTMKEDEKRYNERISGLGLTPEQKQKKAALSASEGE

CypA, sequence (P62937 2-165): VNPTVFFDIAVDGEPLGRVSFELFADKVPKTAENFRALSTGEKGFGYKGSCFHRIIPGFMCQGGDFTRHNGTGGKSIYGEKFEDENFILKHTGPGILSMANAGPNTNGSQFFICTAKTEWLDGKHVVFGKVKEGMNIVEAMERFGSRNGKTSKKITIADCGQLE

CypA (from UniProt P62937)
Kd: 900 nM
